Reference: publication PMC7303358, “The Lotus japonicus Ubiquitin Ligase SIE3 Interacts With the Transcription Factor SIP1 and Forms a Homodimer” (Frontiers in Plant Science, 2020)

Target: the molecule itself
Experiment: SDS-PAGE without DTT in the loading buffer and immunoblot (band of dimer size); SIE3::GFP leaf extract in native buffer, incubated with 10 μM ATP at 4°C with 0 or 100 mM DTT; stopped with SDS loading buffer without DTT; anti-GFP blot

B1: SIE3::GFP (natural protein, L. japonicus, UniProt K0BV36 1-386, looked up)
chain: MELSTIKDAFDRVTKKQKSSSSKTQEVIDQIRQEIENVLDTMQSVNNTDHVLDHKTVLNELKASLLQTAPLSQMEGTQKELNVALSKYGKLLEKNFNTDISKAYRNIDIDVHTLNQIIANHFYRQGLFEIGDHFLSVVGEPESAAVMKSPFLEMYQILEAMKNQDLEPALKWATSNSDKLAQSGSDIVLKLHSMQFVKILQNGSRDEALHYARTYLSPFASSHIADIQKLMGSLLWTGKLDSSPYHALLSPSNWDRLAEELKRQFCNLLGQSYNSPLSVTISAGVQALPPLLKFMNVMVGKKQEWQTMNQLPVPVELDSELQFHSIFVCPVSKEQATEDNPPMLMSCGHVLCKQSISKMSKNGSKLFKCPYCPFDVDAALCKQLYF
notes: SIE3 of Lotus japonicus fused to GFP; the cloning of this construct is not described; Detected with anti-GFP antibody; monomer about 68.5 kDa, upper band about 137 kDa; source: N. benthamiana leaves, total proteins extracted in native buffer
- stoichiometry N: 2
